T1: mouse MuSK (mouse, UniProt Q61006 22-494, limits assumed)
T1 construct: Coated on ELISA plates or on the Biacore chip; also called full length mouse MuSK; mouse MuSK (in house produced in HEK293 cells)
T1 sequence (looked up): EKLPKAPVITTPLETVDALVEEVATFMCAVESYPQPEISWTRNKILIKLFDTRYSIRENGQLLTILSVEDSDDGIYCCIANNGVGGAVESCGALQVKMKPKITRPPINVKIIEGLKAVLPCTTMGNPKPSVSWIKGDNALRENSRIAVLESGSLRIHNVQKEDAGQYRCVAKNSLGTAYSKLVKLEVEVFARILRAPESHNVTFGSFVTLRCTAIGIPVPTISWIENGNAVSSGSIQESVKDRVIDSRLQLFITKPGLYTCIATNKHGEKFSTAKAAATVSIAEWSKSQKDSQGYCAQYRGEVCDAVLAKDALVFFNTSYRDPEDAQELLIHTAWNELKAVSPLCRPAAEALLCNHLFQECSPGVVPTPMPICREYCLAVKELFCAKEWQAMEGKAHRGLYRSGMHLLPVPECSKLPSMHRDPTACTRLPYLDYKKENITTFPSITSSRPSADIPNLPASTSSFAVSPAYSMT

T2: human MuSK (human, UniProt O15146 24-495)
T2 construct: Recombinant protein coated on ELISA plates (R&D Systems cat. 10189-MK) or on the Biacore chip; also called human muscle-specific tyrosine protein kinase; full length human MuSK
T2 sequence: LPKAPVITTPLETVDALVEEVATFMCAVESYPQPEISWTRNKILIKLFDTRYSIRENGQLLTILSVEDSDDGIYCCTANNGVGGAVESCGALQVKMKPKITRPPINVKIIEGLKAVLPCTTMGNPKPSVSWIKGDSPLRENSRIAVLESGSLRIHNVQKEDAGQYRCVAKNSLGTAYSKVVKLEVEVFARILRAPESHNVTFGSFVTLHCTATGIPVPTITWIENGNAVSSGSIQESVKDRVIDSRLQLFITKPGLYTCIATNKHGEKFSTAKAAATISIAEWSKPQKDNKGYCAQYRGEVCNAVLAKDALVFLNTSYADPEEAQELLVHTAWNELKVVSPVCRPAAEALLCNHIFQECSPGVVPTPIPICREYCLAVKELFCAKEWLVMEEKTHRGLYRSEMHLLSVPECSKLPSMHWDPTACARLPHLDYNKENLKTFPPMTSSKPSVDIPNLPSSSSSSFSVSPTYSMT

T3: hECD: full-length extracellular region of human MuSK (E22 to T495) with C-terminal Avi- and His6-tags (human, UniProt O15146 22-495, biotinylated in vitro using the BirA enzyme)
T3 construct: also called human ECD; not shown: Avi- and His6-tags
T3 sequence: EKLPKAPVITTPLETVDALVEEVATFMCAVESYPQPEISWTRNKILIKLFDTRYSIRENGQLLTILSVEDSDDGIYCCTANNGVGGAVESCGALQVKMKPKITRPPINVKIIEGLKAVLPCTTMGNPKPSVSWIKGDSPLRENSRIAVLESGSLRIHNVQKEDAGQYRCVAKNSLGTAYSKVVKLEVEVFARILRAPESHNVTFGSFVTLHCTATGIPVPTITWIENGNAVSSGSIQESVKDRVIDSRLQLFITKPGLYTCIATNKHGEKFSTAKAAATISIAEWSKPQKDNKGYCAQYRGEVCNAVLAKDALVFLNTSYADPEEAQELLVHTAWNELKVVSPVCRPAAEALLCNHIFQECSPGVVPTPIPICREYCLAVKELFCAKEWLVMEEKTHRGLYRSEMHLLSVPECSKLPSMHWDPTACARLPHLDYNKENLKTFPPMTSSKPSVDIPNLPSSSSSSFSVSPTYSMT

T4: hFz: Fz domain and C-terminal flanking sequence of human MuSK (K314-T495) with C-terminal Avi- and His6-tags (human, UniProt O15146 314-495, biotinylated in vitro using the BirA enzyme)
T4 construct: also called human Fz; not shown: Avi- and His6-tags
T4 sequence: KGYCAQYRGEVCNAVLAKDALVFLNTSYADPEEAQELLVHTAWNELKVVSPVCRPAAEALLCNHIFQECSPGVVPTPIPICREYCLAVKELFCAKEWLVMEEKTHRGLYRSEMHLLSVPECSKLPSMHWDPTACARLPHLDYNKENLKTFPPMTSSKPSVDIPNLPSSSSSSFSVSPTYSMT

T5: mECD: full-length extracellular region of mouse MuSK (E22 to T494) with C-terminal Avi- and His6-tags (mouse, UniProt Q61006 22-494, biotinylated in vitro using the BirA enzyme)
T5 construct: range 22-494; also called mouse ECD; not shown: Avi- and His6-tags
T5 sequence (looked up): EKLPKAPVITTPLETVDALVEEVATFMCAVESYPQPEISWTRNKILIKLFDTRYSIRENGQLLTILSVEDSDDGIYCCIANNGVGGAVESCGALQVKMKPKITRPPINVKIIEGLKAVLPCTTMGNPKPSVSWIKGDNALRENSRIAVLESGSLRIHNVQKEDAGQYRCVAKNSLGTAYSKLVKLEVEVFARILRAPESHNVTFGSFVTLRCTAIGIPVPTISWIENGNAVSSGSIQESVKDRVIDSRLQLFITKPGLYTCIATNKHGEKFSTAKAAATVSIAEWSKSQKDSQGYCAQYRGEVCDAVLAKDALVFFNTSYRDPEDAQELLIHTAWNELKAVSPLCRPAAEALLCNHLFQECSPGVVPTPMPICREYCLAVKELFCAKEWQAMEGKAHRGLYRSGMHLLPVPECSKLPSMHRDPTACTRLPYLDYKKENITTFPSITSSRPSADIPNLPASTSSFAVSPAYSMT


Tests used:
mouse MuSK [1] = target: T1, mouse MuSK; test: Biacore T200, MuSK on chip (200RU), 22.2 nM Fab, dissociation pH 5.5
In short: (§1)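 Surface plasmon resonance was run with both human and mouse MuSK immobilized on the sensor chip. Fab association was always performed at pH 7.4 before the dissociation phase. Kinetic parameters were calculated from the binding curves.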

human MuSK [2] = target: T2, human MuSK; test: as above
In short: as §1

[3] = target: T3, hECD: full-length extracellular region …; test: bead-binding titration, Fab format: antigen immobilized on streptavidin beads, MFI by flow cytometry, curve is the 1:1 fit
[4] = target: T4, hFz: Fz domain and C-terminal flanking …; test: as above
[5] = target: T5, mECD: full-length extracellular region …; test: as above
mouse MuSK [6] = target: T1, mouse MuSK; test: Biacore T200, MuSK on chip (200RU), 22.2 nM Fab, dissociation pH 7.4
In short: as §1

human MuSK [7] = target: T2, human MuSK; test: as above
In short: as §1

| koff (mouse MuSK [1]) | koff (human MuSK [2]) | EC50 (read off the curve) [3] | EC50 (read off the curve) [4] | EC50 (read off the curve) [5] | koff (mouse MuSK [6]) | koff (human MuSK [7]) | Binder |
| --- | --- | --- | --- | --- | --- | --- | --- |
| 0.00051 s⁻¹ | 0.00034 s⁻¹ | ~0.9 nM | ~0.5 nM | ~0.6 nM | 0.00053 s⁻¹ | 0.00057 s⁻¹ | X2 Fab (Fab, V domains shown, Fab format) VH: EVQLVESGGGLVQPGGSLRLSCAASGFTVSSSSIHWVRQAPGKGLEWVASISSSYGSTSYADSVKGRFTISADTSKNTAYLQMNSLRAEDTAVYYCARSEGDRYVSGYMGMDYWGQGTLVTVSS VL: DIQMTQSPSSLSASVGDRVTITCRASQSVSSAVAWYQQKPGKAPKLLIYSASSLYSGVPSRFSGSRSGTDFTLTISSLQPEDFATYYCQQSGVWLITFGQGTKVEIK |
| 0.0246 s⁻¹ | 0.00225 s⁻¹ | ~0.2 nM | ~0.1 nM | ~0.4 nM | 0.00558 s⁻¹ | 0.00063 s⁻¹ | X3 Fab (Fab, V domains shown, Fab format) VH: EVQLVESGGGLVQPGGSLRLSCAASGFTISSSSIHWVRQAPGKGLEWVASISSSSGYTYYADSVKGRFTISADTSKNTAYLQMNSLRAEDTAVYYCARSWYEMWMSGYFGFDYWGQGTLVTVSS VL: DIQMTQSPSSLSASVGDRVTITCRASQSVSSAVAWYQQKPGKAPKLLIYSASSLYSGVPSRFSGSRSGTDFTLTISSLQPEDFATYYCQQSSSSLITFGQGTKVEIK |
